According to article PMC11559006, “Rab6a enables BICD2/dynein-mediated trafficking of human papillomavirus from the trans-Golgi network during virus entry” (mBio, 2024):
Ends that are not written are not given here.

Biological target: T1, HA-tagged constitutively active (CA) Rab6a mutant (Q72L) (UniProt P20340 2-208, Q72L)
T1 construct: Rab6a, amplified from EGFP-Rab6AQ72L (Addgene #49483); the forward primer puts ATG and the HA tag before the codons S-T-G-G (residue 2 onward), the reverse primer ends at the stop codon after ...GGCSC; The vector is called pCMV-FLAG; also called HA-tagged CA Rab6a; GTP-Rab6a; source: HEK293TT, transfected, purified (anti-HA agarose, eluted with HA peptide); not shown: HA, N-terminal, kept
Assay: pull-down; 5 µg biotinylated peptide incubated with purified protein (~20 nM FLAG-BICD2 or HA-tagged CA or DN Rab6a) in HN buffer (50 mM HEPES, 150 mM NaCl) with 0.1% Triton, 1 mM DTT, 2 h at 4°C; streptavidin magnetic beads; western blot for HA or FLAG
Settings: both partners purified

B1: biotinylated HPV16 L2 peptide, amino acids 434–461 (peptide)
peptide: SPQYTIIADAGDFYLHPSYYMLRKRRKR
modifications: also: further groups not given here
notes: HPV16 minor capsid protein L2, amino acids 434-461 of full-length HPV16 L2; also called L2 C; peptide 434–461; source: synthetic peptide, bought: GenScript or Promega
binding result: binds
